{
  "source": "patent US20040037843A1",
  "binders": {"B1": {"name": "PSA 43, 10 amino acids (peptide)", "peptide": "RAVCGGVLVH"}, "B2": {"name": "Kallikrein 59, 9 amino acids (peptide)", "peptide": "WVLTAAHCL"}, "B3": {"name": "peptide 1418.53, HuK2.178.V10 (peptide)", "peptide": "LLSNDMCARV"}, "B4": {"name": "peptide 1419.51, PAP.13 (peptide)", "peptide": "SLSLGFLFLL"}, "B5": {"name": "peptide 1126.06, PSM.662 (peptide)", "peptide": "RMMNDQLMFL"}, "B6": {"name": "PAP peptide, position 70, 10 amino acids (peptide)", "peptide": "LTQLGMEQHY"}, "B7": {"name": "peptide 1419.13, PSA.116.V11 / HuK2.120.V11 (peptide)", "peptide": "DLMLLRLSEPV"}, "B8": {"name": "PSA peptide, position 203, 11 amino acids (peptide)", "peptide": "STCSGDSGGPL"}, "B9": {"name": "peptide 1419.62, PAP.196.V10 (peptide)", "peptide": "GLHGQDLFGV"}, "B10": {"name": "Peptide 1418.29 (peptide)", "peptide": "GTPEGDLVYV"}, "B11": {"name": "peptide 1419.24, PSA.166.V10 (peptide)", "peptide": "KLQCVDLHVV"}, "B12": {"name": "PSA position 188, 10 amino acids (peptide)", "peptide": "VTKFMLCAGR"}},
  "conditions_in_all_cases": "remark: other sources report otherwise",
  "key": {"[1]": {"target": "HLA-A*1101 (human)"}, "[2]": {"target": "HLA-A*0201 (human)", "assay": "competition with 125I-labelled probe peptide on purified HLA"}, "[3]": {"target": "HLA-A*0202 (human)", "assay": "competition with 125I-labelled probe peptide on purified HLA"}, "[4]": {"target": "HLA-A*0203 (human)", "assay": "competition with 125I-labelled probe peptide on purified HLA"}, "[5]": {"target": "HLA-A*0206 (human)", "assay": "competition with 125I-labelled probe peptide on purified HLA"}, "[6]": {"target": "HLA-A*0201 (human)"}, "[7]": {"target": "HLA-A*0202 (human)"}, "[8]": {"target": "HLA-A*0203 (human)"}, "[9]": {"target": "HLA-A*0206 (human)"}, "[10]": {"target": "HLA-A*6802 (human)"}, "[11]": {"target": "HLA-A*0201 (human)", "remark": "listed apart in the source"}, "[12]": {"target": "HLA-A*0206 (human)", "assay": "competition with 125I-labelled standard peptide for purified HLA"}, "[13]": {"target": "HLA-A*0101 (human)"}, "[14]": {"target": "HLA-A*0201 (human)", "assay": "competition with 125I-labelled standard peptide for purified HLA"}, "[15]": {"target": "HLA-A*0203 (human)", "remark": "listed apart in the source"}, "[16]": {"target": "HLA-A*0201 (human)", "remark": "listed apart in the source"}, "[17]": {"target": "HLA-A*0203 (human)", "remark": "listed apart in the source"}, "[18]": {"target": "HLA-A*0201 (human)", "assay": "competition with 125I-labeled probe peptide for purified HLA, gel filtration"}, "[19]": {"target": "HLA-A*0206 (human)", "assay": "competition with 125I-labeled probe peptide for purified HLA, gel filtration"}, "[20]": {"target": "HLA-A*6802 (human)", "assay": "competition with 125I-labeled probe peptide for purified HLA, gel filtration"}, "[21]": {"target": "HLA-A*0203 (human)", "assay": "competition with 125I-labelled standard peptide for purified HLA"}, "[22]": {"target": "HLA-A*1101 (human)", "remark": "listed apart in the source"}},
  "note": "Read-outs that look alike come from different tables or passages of the source.",
  "data": [
    {"binder": "B1", "values": [
      {"measurement": "relative binding ratio (IC50 of standard peptide / IC50 of test peptide)", "setting": "[1]", "value": 0.031}
    ]},
    {"binder": "B2", "values": [
      {"measurement": "relative binding ratio", "setting": "[2]", "value": 0.0003},
      {"measurement": "relative binding ratio", "setting": "[3]", "value": 0.0018},
      {"measurement": "relative binding ratio", "setting": "[4]", "value": 0.0001},
      {"measurement": "relative binding ratio", "setting": "[5]", "value": 0.016}
    ]},
    {"binder": "B3", "values": [
      {"measurement": "IC50", "setting": "[6]", "value": 5.3, "unit": "nM"},
      {"measurement": "IC50", "setting": "[7]", "value": 0.7, "unit": "nM"},
      {"measurement": "IC50", "setting": "[8]", "value": 4.3, "unit": "nM"},
      {"measurement": "IC50", "setting": "[9]", "value": 10, "unit": "nM"},
      {"measurement": "IC50", "setting": "[10]", "value": 1700, "unit": "nM"}
    ]},
    {"binder": "B4", "values": [
      {"measurement": "IC50", "setting": "[11]", "value": 40, "unit": "nM"}
    ]},
    {"binder": "B5", "values": [
      {"measurement": "IC50", "setting": "[12]", "value": 40, "unit": "nM"}
    ]},
    {"binder": "B6", "values": [
      {"measurement": "relative binding ratio (IC50 of standard peptide / IC50 of test peptide)", "setting": "[13]", "value": 0.62}
    ]},
    {"binder": "B7", "values": [
      {"measurement": "IC50", "setting": "[14]", "value": 50, "unit": "nM"}
    ]},
    {"binder": "B8", "values": [
      {"measurement": "relative binding ratio", "setting": "[15]", "value": 0.0092},
      {"measurement": "relative binding ratio", "setting": "[16]", "value": 0.0005}
    ]},
    {"binder": "B9", "values": [
      {"measurement": "IC50", "setting": "[17]", "value": 3.2, "unit": "nM"}
    ]},
    {"binder": "B10", "values": [
      {"measurement": "IC50", "setting": "[18]", "value": 313, "unit": "nM"},
      {"measurement": "IC50", "setting": "[19]", "value": 40, "unit": "nM"},
      {"measurement": "IC50", "setting": "[20]", "value": 571, "unit": "nM"}
    ]},
    {"binder": "B11", "values": [
      {"measurement": "IC50", "setting": "[21]", "value": 9.5, "unit": "nM"}
    ]},
    {"binder": "B12", "values": [
      {"measurement": "relative binding ratio (IC50 of standard peptide / IC50 of test peptide)", "setting": "[22]", "value": 0.012}
    ]}
  ]
}
